The data set has as its system MS2 coat protein. Put plainly: apparent KD of MS2 coat protein; designed switch direction (-1 OFF switch, 1 ON switch): 1; higher = weaker reporter binding. The method, boiled down: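 RNA switches sharing common flanks were transcribed by stalled E. coli RNA polymerase on Illumina chips. A doubling series of SNAP-549-labelled MS2 coat protein, from 0.7 or 1.5 nM to 3 µM, was applied in Tris-HCl pH 7.5 buffer with KCl, MgCl2, BSA, DTT, tRNA and Tween-20. Each step lasted 0.8–1.5 h at the bottom of the series and 10–20 min at the top. Normalised cluster fluorescence was curve-fitted, giving apparent KD as the per-design median over clusters.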

Where [1] appears, read: input ligand: microRNA oligo, concentration not stated.
Setting [2] is: Eterna round: R95, input ligand: FMN 200 uM.
The mark [3] stands for this setting: Eterna round: R95, input ligand: microRNA oligo, concentration not stated.
Where [4] appears, read: Eterna round: R95, input ligand: none.

On to “AAAACAUGACGAGGAUAUGGUACAUGAGGAUCACCCAUGUAUGUACCACGACGCGUACGUCGAAUCCAGAAGGCGUCGUGAAAA [Mat - Same State NG 2 - JL mod - D19] (Eterna round: R96, puzzle: Same State NG 2)”, for which the “apparent KD of MS2 coat protein” value is, setting by setting: (input ligand: FMN 200 uM) 20.3 nM; under setting [1], 68.5 nM; (input ligand: none) 74.1 nM.

“UGUUGUAUUACAGGAUAUCUAUUAGUUUCAUUUAGAGAAGGGUAUUCACAUGAGGAUCACCCAUGUAUAUACGAGGAAGUUGUG [JMF's solution 95] (Eterna round: R96, puzzle: Same State NG 1)”: the “apparent KD of MS2 coat protein” value runs as follows: (input ligand: FMN 200 uM) 55 nM; under setting [1], 44.4 nM; (input ligand: none) 59.6 nM.

For the sequence “GUCGGACCGGAAGGAUAUAACGACUGGUGUUUUCACAUGAGGAUCACCCAUGUAUCUCUACCGUGUUAGAAGGUUCGGAGGAAU [Eternabot solution 49] (Eterna round: R96, puzzle: Same State NG 2)”, the “apparent KD of MS2 coat protein” value reads like this: (input ligand: FMN 200 uM) 14.8 nM; under setting [1], 15.2 nM; (input ligand: none) 20.4 nM.

For the sequence “ACGCGGGUAUCACAGGAUAUACUCAUAACUACAUGAGGAUCACCCAUGUGGCGGAAUUCCGGUGCGUAGAAGGGUGAUGGACCGC [Artece] (puzzle: Same State 2)”, the “apparent KD of MS2 coat protein” value under setting [2] worked out at 19.3 nM, the “apparent KD of MS2 coat protein” value under setting [3] worked out at 28.5 nM and the “apparent KD of MS2 coat protein” value under setting [4] came to 26.9 nM.

Take “GGAGCCGGCACUGAGGAUAUUCAUAUUAAAACAUGAGGAUCACCCAUGUAGGCCAGAAGGCCUUGGGAGAAGGCGGGUCGGCCCG [Bibimoar - 3] (Eterna round: R96, puzzle: Same State 2)”: the “apparent KD of MS2 coat protein” value amounted to 22.1 nM (input ligand: FMN 200 uM), 222 nM under setting [1] and 258 nM (input ligand: none).

On to “AGUCCAGCCUGAGCUGGACAAAUGCAUGUACAUGAGGAUCACCCAUGUUCAUGUACAAGCAUUUUGCUCGUCUUAAA [Sensor for hsa-mir-208a (JL zipper 55 mod - 61 to A)] (Eterna round: R96, puzzle: Sensor for hsa-mir-208a)”, for which the “apparent KD of MS2 coat protein” value stood at 330 nM (input ligand: FMN 200 uM), 13.5 nM under setting [1] and 346 nM (input ligand: none).

With “UUAGAAUACGCAGGAUAUCGAUGAUUGAUAGUACGAGAAGGGCGAACAUGAGGAUCACCCAUGUAUAUUAAUUUGAGUUUGAAU [JR_SSNG1_Sub076] (Eterna round: R96, puzzle: Same State NG 1)”, the “apparent KD of MS2 coat protein” value (input ligand: FMN 200 uM) amounted to 69.4 nM, the “apparent KD of MS2 coat protein” value under setting [1] turned out to be 120 nM and the “apparent KD of MS2 coat protein” value (input ligand: none) amounted to 214 nM.

In the case of “CGUCGUUUGAUAGGAUAUCGCUUUACAUGAGGAUCACCCAUGUUUCCCACGCUGGUUUUUCUUUCCGAGAAGGAUUCUGAUGUU [salish99_SSNG02_r04_029] (Eterna round: R96, puzzle: Same State NG 2)”, the “apparent KD of MS2 coat protein” value is, setting by setting: (input ligand: FMN 200 uM) 44.6 nM; under setting [1], 31.4 nM; (input ligand: none) 40.6 nM.

As for “GCAGAACAUGAGGAUCACCCAUGUCUCUAAUAUCGAGGAUAUGGGCAGGGUAUAUCCCAACCAGAAGGCGAACUGC [SS1 Teenbexe 14] (puzzle: Same State 1)”, the “apparent KD of MS2 coat protein” value by setting is: under setting [2], 51.7 nM; under setting [3], 140 nM; under setting [4], 205 nM.

Take “AGGAGUAUCUGACAUGAGGAUCACCCAUGUUCCAUUCUACGAUAGGAUAUCGAAAUACAAAGACGCGAGAAGGAUCAGAACCUA [Eternabot solution 48] (Eterna round: R96, puzzle: Same State NG 3)”: the “apparent KD of MS2 coat protein” value runs as follows: (input ligand: FMN 200 uM) 23.2 nM; under setting [1], 16.5 nM; (input ligand: none) 26.8 nM.

Turning to “UUAUAACAUGAGGAUCACCCAUGUCAACAAAGUCGAGGAUAUGGGCAAUUAUUAUUAGAACCAGAAGGCGAAAAUU [Mat - Same State 1 - Mod of UCT - D29] (puzzle: Same State 1)”, the “apparent KD of MS2 coat protein” value by setting is: under setting [2], 52.1 nM; under setting [3], 227 nM; under setting [4], 587 nM.

For the sequence “AGUAGUUUAACAUGAGGAUCACCCAUGUAUCUAUCUGUAACCUAGGAUAUGGAGGUUUUAUUUAACCAGAAGGAGGAUUGUUUA [JR_SSNG3_Sub044] (Eterna round: R96, puzzle: Same State NG 3)”, the “apparent KD of MS2 coat protein” value is, setting by setting: (input ligand: FMN 200 uM) 19.8 nM; under setting [1], 17.6 nM; (input ligand: none) 24.2 nM.

As to “AGGCAAGCUUUUUGCUGGUAUGAAGGAGAACAUGAGGAUCACCCAUGUAUUAGAGGUGUAGAGGAUUUGAGAAAGAA [JR_SHM208A_Sub003] (puzzle: Sensor for hsa-mir-208a)”, the “apparent KD of MS2 coat protein” value under setting [2] is 96.8 nM, the “apparent KD of MS2 coat protein” value under setting [3] worked out at 91.8 nM and the “apparent KD of MS2 coat protein” value under setting [4] turned out to be 134 nM.

In the case of “ACCCAAAAUACAUGGGAACAAGCUUUUUAACAUGAGGAUCACCCAUGUACUCGUCUUAUAAGCAGUCGAAAGACUGC [hsa-mir-208a sensor: 113] (Eterna round: R96, puzzle: Sensor for hsa-mir-208a)”, the “apparent KD of MS2 coat protein” value (input ligand: FMN 200 uM) was 563 nM, the “apparent KD of MS2 coat protein” value under setting [1] is 14.6 nM and the “apparent KD of MS2 coat protein” value (input ligand: none) came to 518 nM.

With “AGCUAUUAAUCAGGAUAUAGUGACAUGAGGAUCACCCAUGUAUUGAUGAUUAAAUGUGGUCACCGCUAGAAGGGAUUACUAACA [SameState NG2 #47] (Eterna round: R96, puzzle: Same State NG 2)”, the “apparent KD of MS2 coat protein” value runs as follows: (input ligand: FMN 200 uM) 25.6 nM; under setting [1], 23.3 nM; (input ligand: none) 30.1 nM.

For “UGGCAACAUGAGGAUCACCCAUGUCAAACUAAUCGAGGAUAUGGGAACGAACAAGAGAAACUAGAAGGCGAACUUG [Altered State 1-11 - Jieux - Same State 1] (puzzle: Same State 1)”, the “apparent KD of MS2 coat protein” value was determined as 122 nM under setting [2], 137 nM under setting [3] and 118 nM under setting [4].

For the sequence “AUAGUUGCCGAAGGAUAUGAUGAGGAUCACCCAUCAGAAGGUUGGCUAUUGGGUGGACAUGAGGAUCACCCGUGUUCUUUGGUA (Eterna round: R96, puzzle: Same State NG 1)”, the “apparent KD of MS2 coat protein” value reads like this: (input ligand: FMN 200 uM) 50.3 nM; under setting [1], 47.5 nM; (input ligand: none) 82.1 nM.

For “GUUACAUGAGGAUCACCCAUGUAUGUGUGGGAGUAAGUGUCUUAGGAUAUCUAUUAUGUAAAUUAAGAGAAGGAAGAUUGUUGU [JMF's solution 17] (Eterna round: R96, puzzle: Same State NG 3)”, the “apparent KD of MS2 coat protein” value by setting is: (input ligand: FMN 200 uM) 160 nM; under setting [1], 222 nM; (input ligand: none) 262 nM.

As for “UACAAUCUAUCUGAGGAUAUCAUGAUUUUAACAUGAGGAUCACCCAUGUGCAGGAAAACUGCAUAUGAGAAGGCAGAUAGAUUGU [salish99_ss2_r3_070] (puzzle: Same State 2)”, the “apparent KD of MS2 coat protein” value came out at 199 nM under setting [2], 69.7 nM under setting [3] and 178 nM under setting [4].

As to “AGUCCAGCCUGAGCUGGACAAAAGCAUGUACAUGAGGAUCACCCAUGUUCAUGUACAAGCUUUUUGCUCGUCUUAAC [salish99_208a_r3_029] (puzzle: Sensor for hsa-mir-208a)”, the “apparent KD of MS2 coat protein” value under setting [2] is 553 nM, the “apparent KD of MS2 coat protein” value under setting [3] stood at 16.8 nM and the “apparent KD of MS2 coat protein” value under setting [4] was found to be 636 nM.

Consider “UAUUAAUCUGUAGGAUAUCUAGGAUAUGGACGAGGAUCACCCGAGCAGCAUCAGCGCACCAGAGGAGAGAAGGACGCUCUGGUG [pwkr ssNG2 2F5 2FMN.25] (Eterna round: R96, puzzle: Same State NG 2)”, for which the “apparent KD of MS2 coat protein” value was found to be 332 nM (input ligand: FMN 200 uM), 93.7 nM under setting [1] and 469 nM (input ligand: none).

In the case of “UUCUUACAUGAGGAUCACCCAUGUGUUGUCGUGGGAGGAUAUCCUGGUUCGGUGGCGUUGGGAGAAGGCCUAUGUU [× ×•×ª×• ×ž×“×™× ×” × ×—×ª-19] (puzzle: Same State 1)”, the “apparent KD of MS2 coat protein” value by setting is: under setting [2], 476 nM; under setting [3], 134 nM; under setting [4], 376 nM.

Turning to “GGUACAUGAGGAUCACCCAUGUCAAAGGCACCGUGCAGACUGGAGGAUAUCACAGCAGAAAGCUGUGAGAAGGCCGUGUAAGCG [Eternabot solution 17] (Eterna round: R96, puzzle: Same State NG 3)”, the “apparent KD of MS2 coat protein” value (input ligand: FMN 200 uM) was determined as 17.4 nM, the “apparent KD of MS2 coat protein” value under setting [1] came out at 24.6 nM and the “apparent KD of MS2 coat protein” value (input ligand: none) is 42.9 nM.

Regarding “UGAAUAAUGUUAGGAUAUACAUGAGGAAUCCUCGUAGAAGGAACAUGACAUGAGGAUCACCCAUGUAGCGCUCCGUAGAGCGCA [Mat - Same State NG 1 - JL mod - D49] (Eterna round: R96, puzzle: Same State NG 1)”, the “apparent KD of MS2 coat protein” value reads like this: (input ligand: FMN 200 uM) 111 nM; under setting [1], 39.5 nM; (input ligand: none) 250 nM.

Consider “GGCUAGCCUCAAGGAUAUACGCUCUCAACAAAGAACCGACUACAUGAGGAUCACCCAUGUACCAUGUAGAAGGUGAGGUUAGCC [Eternabot solution 4] (Eterna round: R96, puzzle: Same State NG 2)”, for which the “apparent KD of MS2 coat protein” value under setting [1] was found to be 397 nM.

For “GGAGAGAGAGCACAGGAUAUGCGAGGAGAGACAUGAGGAUCACCCAUGUAAGAGAGAGAGGAGAGGUAGAAGGGUGAGAGAGAGG [Altered State 2-21 - Jieux - Same State 2] (puzzle: Same State 2)”, the “apparent KD of MS2 coat protein” value by setting is: under setting [2], 150 nM; under setting [3], 62.7 nM; under setting [4], 92.3 nM.

On to “ACUGCAAUUAACGCCUACAUGAGGAUCACCCAUGUAUGUAGGCAGGAUAUCGUUUGCUUUGCAAACGAGAAGGGCUGUAGUAGC [salish99_SSNG3_R04_003] (Eterna round: R96, puzzle: Same State NG 3)”, for which the “apparent KD of MS2 coat protein” value (input ligand: FMN 200 uM) worked out at 59.1 nM, the “apparent KD of MS2 coat protein” value under setting [1] was 59.4 nM and the “apparent KD of MS2 coat protein” value (input ligand: none) was 64.1 nM.

The values above are taken from the supplement of paper PMC9170038.
